test: yeast display, Sf9 membrane polyspecificity reagent, FACS + sequencing; frameworks hold sequencing errors
How it was run: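 Sorting gates, low and high (top ~1%), were placed on anti-HA fluorescence to track expression and on streptavidin fluorescence to track reagent binding. A clone's polyreactivity label is taken from the gate it came out of. The reagent was 10% biotinylated, detergent-solubilized Sf9 membrane, applied for 1 hour at 4 °C to galactose-induced yeast display cells.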

Sequence | polyreactivity (PSR sort gate)
QVQLVESGGGLVQAGGSLRLSCAASGSIFGAYVMGWYRQAPGKERELVAAITRRGGSTYYADSVKGRFTISRDNAKNTVYLQMNSLKPEDTAVYYCAARRGAGDGYWGQGTQVTVSS | high polyreactivity
QVQLVESGGGLVQAGGSLRLSCAASGSIFGDNAMAWYRQAPGKERELVARISSGGNTYYADSVKGRFTISRDNAKNTVYLQMNSLKPEDTAVYYCAAAIKVRYKKFPYYYWGQGTQVTVSS | high polyreactivity
QVQLVESGGGLVQAGGSLRLSCAASGSIFGDNAMGWYRQAPGKERELVAAISIVGSTSYADSVKGRFTISRDNAKNTVYLQMNSLKPEDTAVYYCAADTFYSYYDMDYWGQGTQVTVSS | low polyreactivity
QVQLVESGGGLVQAGGSLRLSCAASGSIFGDNAMGWYRQAPGKERELVAAITSSGGSTYYADSVKGRFTISRDNAKNTVYLQMNSLKPEDTAVYYCNADFGYGWYLRYDYWGQGTQVTVSS | high polyreactivity
QVQLVESGGGLVQAGGSLRLSCAASGSIFGDNAMGWYRQAPGKERELVAAITTGASRTYYADSVKGRFTISRDNAKNTVYLQMNSLKPEDTAVYYCNASDPSWREYDYWGQGTQVIVSS | low polyreactivity
QVQLVESGGGLVQAGGSLRLSCAASGSIFGDYAMGWYRQAPGKERELVAAITSSGGITYYADSVKGRFTISLDNAKNTVYLQMKSLNPEDTAVYYCAAYGYGSNYRYTGYYYWGQGTQVTVSS | low polyreactivity
QVQLVESGGGLVQAGGSLRLSCAASGSIFGDYVMGWYRQAPGKERELVAAITFGGGRTYYADSVKGRFTISRDNAKNTVYLQMNSLKPEDTAVYYCAVSRKGLGSVEYWGQGTQVTVSS | low polyreactivity
QVQLVESGGGLVQAGGSLRLSCAASGSIFGENARGWYRQAPGKERELVAAITSGGSTYYADSVKGRFTISRDNAKNTVYLQMNSLKPVDTAVYYCAASGRVGPGYWYDSWGQGTQVTVSS | low polyreactivity
QVQLVESGGGLVQAGGSLRLSCAASGSIFGEYAMGWYRQAPGKERELVADITTGGNTNYADSVKGRFTISRDYAKNTVYLQMNSLKPEDTAVYYCADEANYYVIFHGSWYTDDYWGQGTQVTVSS | low polyreactivity
QVQLVESGGGLVQAGGSLRLSCAASGSIFGFNAMGWYRQAPGKERELVAAINNGGSTNYADSVKGRFTISRDNAKNTVYLQMNSLKPEDTAVYYCAAVGGWRWSNQDYRYPYYYWGQGTQVTVSS | high polyreactivity
QVQLVESGGGLVQAGGSLRLSCAASGSIFGFNTMGWYRQAPGKERELVATINWSGGSTYYADSVKGRFTISRDNAKNTVYLQMNSLKPEDTAVYYCNAGPFSGRLFTTYASRGRYDYWGQGTQVTVSS | low polyreactivity
QVQLVESGGGLVQAGGSLRLSCAASGSIFGFYAMGWYRQAPGKERELVAAISSDGGSTYYADSVKGRFTISRDNAKNTVYLQMNSLKPEDTAVYYCAAAHGSIYDSTYYEYYYWGQGTQVTVSS | low polyreactivity
QVQLVESGGGLVQAGGSLRLSCAASGSIFGFYAMGWYRQAPGKERELVASITISGGSTYYADSVKGRFTISRDNAKNTVYLQMNSLKPEDTAVYYCAARRYWDYNYWGQGTQVTVSS | low polyreactivity
QVQLVESGGGLVQAGGSLRLSCAASGSIFGGNAMGCYRQAPGKERELVAAITDGGNTNYADSVKGRFTISRDNAKNTVYLQMNSLKPEDTAVYYCAARMPGTYGGRYGYDYWGQGTQVTVSS | low polyreactivity
QVQLVESGGGLVQAGGSLRLSCAASGSIFGGNAMGWYRQAPGKERELVAAISGSGGSTYYADSVKGRFTISRDNAKNTVYLQMNSLKPEDTAVYYCAAGIYRGRNYYYWGQGTQVTVSS | high polyreactivity
QVQLVESGGGLVQAGGSLRLSCAASGSIFGGNAMGWYRQAPGKERELVATITDRGSSTYYADSVKGRFTISRDNAKNTVYLQMNSLKPEDTAVYYCATAFPDVPEPDYWGQGAQVTVSS | low polyreactivity
QVQLVESGGGLVQAGGSLRLSCAASGSIFGGYAMGWYRQAPGKERELVAAIDESGGSTYYADSVKGRFTISRDNAKNTVYLQMNSLKPDDTAVDYCLVFRDDSGPGDYYYWGQGTQVTVSS | low polyreactivity
QVQLVESGGGLVQAGGSLRLSCAASGSIFGGYAMGWYRQAPGKERELVATITRGGSTYYADSVKGRFTISRDNAKNTVYFQMNSLKPEDTAVYYCAARLRSKTYYTLEFDYWGQGTQVTVSS | high polyreactivity
QVQLVESGGGLVQAGGSLRLSCAASGSIFGGYAMGWYRQAPGKERELVATSYADSVKGRFTISRDIAKNTVYLQMNSLKPEDTAVYYCAADPPLEGVHGYNYWGQGTQVTVSS | low polyreactivity
QVQLVESGGGLVQAGGSLRLSCAASGSIFGGYAMGWYRQPPGKERELVAAITWGGGSTYYADSVKGRFTISRDNAKNTVYLQMNSLKPEDTAVYYCAADRSWYDWEDDYWGQGTQVTVSS | low polyreactivity

Sequence | polyreactivity (PSR sort gate)
QVQLVESGGGLVQAGGSLRLSCAASGSIFGGYGMGWYRQAPGKERELVAAINSGSSTYYADSVKGRFTISRDNAKNTVYLQMNSLKPEDTAVYYCAARPYPHSAYEGDYWGRGTQVTVSS | low polyreactivity
QVQLVESGGGLVQAGGSLRLSCAASGSIFGGYTMGWYRQAPGKERELVAAISRRGGNTYYADSVKGRFTISRDYAKNTVYLHMKSMKPEDTAVYYCAVRWPSARIPVKLDYWGQGTQVTVSS | high polyreactivity
QVQLVESGGGLVQAGGSLRLSCAASGSIFGHYAMGWYRQAPGKERELVAAISYSGGSTYYADSVKGRFTISRDNAKNTVYLQMNILKPEDTAVYYCNADLYDAGSEMDYWGQGTQVTVSS | high polyreactivity
QVQLVESGGGLVQAGGSLRLSCAASGSIFGINAMGWYRQAPGKERELVAAISYSGGSTYYADTVKGRFTISRDNAKNTVYLQMNSLKPEDTAVYYCARRGKHVAGRYYYWGQVTQVTVSS | high polyreactivity
QVQLVESGGGLVQAGGSLRLSCAASGSIFGINTMGWYRHAPGKEREFVASIRFNDGDTYYADSVKGRFTISRDTAKNTVYLKMNSLKPEDTAVYYCNVQTYVELRLDYWGQGTQVTVSS | low polyreactivity
QVQLVESGGGLVQAGGSLRLSCAASGSIFGINTMRWYRQAPGKEREFVASIRFNDGDTYYADSVKGRFTISRDNAKNTVYFQMNSLKPEDTAVYYFNVQTYVELRLDYWGQGTHVTVSS | low polyreactivity
QVQLVESGGGLVQAGGSLRLSCAASGSIFGIYAMGWYRQAPGKERELVAAIRRGGSTYYADSVKGRFTISRDNAKNTVYLQMNSLKPEDTAVYYCAGRKYRLWGKGVDYDFCGQGTQVTVSS | high polyreactivity
QVQLVESGGGLVQAGGSLRLSCAASGSIFGIYVMGWYRPAPGKERELVAGISTRGGSTYYADSVKGRFTISRDNAKNTVYLQMNSLKPEDTAVYYCAAVPASYRYPMYYWGQGTQVTVSS | low polyreactivity
QVQLVESGGGLVQAGGSLRLSCAASGSIFGKNAMGWYRQAPGKDRELVAAISWSGGRTYYADSVKGRFTISRDNAKNSVYLQMNSLKPEDTAVYYCAASWWGVARGSSRKKYDYWGQGTQVTVSS | high polyreactivity
QVQLVESGGGLVQAGGSLRLSCAASGSIFGKNAMGWYRQARGKERELVAAITWSGGSTYYADSVKGRFTISRENAKNTVYLQMNSLKPEDTAVYYCNAVRVRVTSHRIRQLDFGYWGQGTQVTVSS | low polyreactivity
QVQLVESGGGLVQAGGSLRLSCAASGSIFGKYTMGWYRQAPGKERELVAAISRSGSSTYYADSVKGRFTISRDNAKNTVYLQMNSLKPEDTAVYYCAAKFYYGVTSKFESWGQGTQVTVSS | high polyreactivity
QVQLVESGGGLVQAGGSLRLSCAASGSIFGKYVMGWYRQAPGKERELVAAITFGGGSTYYADSVKGRFTISRDNAKNTVYFQMNSLKPEDTAVYYCAAKSYDERLYRRPRDYWGQGTQVTVSS | high polyreactivity
QVQLVESGGGLVQAGGSLRLSCAASGSIFGLNAMGWYRQPPGKERELVAAINSDGDTYYADSVKGRFTISRDNAKNTVYLQMNSLKPEDTAVYYCSADYYWDPFDSNFGHVPQEYESWGQGTQVTVSS | low polyreactivity
QVQLVESGGGLVQAGGSLRLSCAASGSIFGLYAMGWYRQAPGKEREFVASITYSGGSTYYADSVKGRFTISRDNAKNTVYLQMNSLKPEDTAVYYCAAESYWGYDYWGQGTQVTVSS | high polyreactivity
QVQLVESGGGLVQAGGSLRLSCAASGSIFGLYAMGWYRQAPGKERELVAAINQSGGSTSYADSVKGRFTISRDNAKNTVYLQMNSLKPEDNAVYYCNRVRLNTEGFDYWGQGTQVTVSS | low polyreactivity
QVQLVESGGGLVQAGGSLRLSCAASGSIFGLYAMGWYRQAPGKERELVAAITVSGGSTYYADSVKGRFTISRDNAKNTVYLQMNSLKPEDTAVYYCAARAGWPLYQYYYWGQGTQVTVSS | high polyreactivity
QVQLVESGGGLVQAGGSLRLSCAASGSIFGLYAMGWYRQAPGKERELVAGITYSGGSTYYADSVKGRFTISRDNAKNTVYLQLNSLKPEDTAVYYCNTRYWRGWYAYYYWGQGTQVTVSS | high polyreactivity
QVQLVESGGGLVQAGGSLRLSCAASGSIFGNNAMGWYRKAPGKERELVAAISSGGSTKYADSVKGRFTISRDNAKNTVYLQMNSLKPEDTAVYYCAKDSWSRAYSWATRVHWRYDYWGQGTQVTVSS | low polyreactivity
QVQLVESGGGLVQAGGSLRLSCAASGSIFGNYAMGWYRQAPGKERELVAGISKSGGRTYYADSVKGRFTISRDNAKITVYLQMNRLKPEDTAVYYCNALVTRYQSLDRLGDYWGQGTQVTVSS | high polyreactivity
QVQLVESGGGLVQAGGSLRLSCAASGSIFGPNAMGWYRQAPGKERELVAAITSGSSTKYADSVKGRFTISRDNAKNPVYLQMNSLKPEDTAVYYCAASGTTTWKYGYWGQGTQVTVSS | low polyreactivity

Reference: the nanobody polyreactivity screen of Harvey et al. (2022)
